Read-outs that look alike come from different tables or passages of the source.
Columns and labels:
Test in all cases: SPR
[1] = molecular target: recombinant full length GST-TIMAP (wt), non-phosphorylated
[2] = molecular target: mono-thiophosphorylated GST-TIMAP (wt)
[3] = molecular target: double-thiophosphorylated GST-TIMAP (wt)
[4] = molecular target: recombinant full length GST-TIMAP (wt), non-phosphorylated; remark: listed apart in the source

“recombinant PP1cβ (catalytic subunit of protein phosphatase 1, β isoform) (from UniProt P62140 1-327) (enzyme)” gave a Ka [1] of 1.28e+06 M⁻¹, a koff [1] of 0.00366 s⁻¹ and a kon [1] of 4680 M⁻¹ s⁻¹. The Ka [2] was 7.39e+06 M⁻¹, the koff [2] was 0.000556 s⁻¹ and the kon [2] was 4110 M⁻¹ s⁻¹. For the same substance, the Ka [3] was 1.93e+06 M⁻¹, the koff [3] was 0.000522 s⁻¹ and the kon [3] was 1010 M⁻¹ s⁻¹. The Ka [4] was 1.8e+06 M⁻¹.

Reference: article PMC3695725
